B1: PTPN9 (parent)
chain: IDFLRVVRNQQSLAVSNMGARSKG

Variants of: B1
Test: protein stability index of a GFP-peptide fusion (GPS, HEK-293T) (PSI 1-6); higher = more stable
Settings: c terminus: a fixed tail appended
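Note: lentivirally expressed fusions sorted by FACS into six bins by GFP to DsRed ratio, PSI derived from sequencing read proportions per bin multiplied by bin number.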

Variant	protein stability index
IDFLRVPRNQQSLAVSNMGARSKG [V7P]	2.94
IDFLRVMRNQQSLAVSNMGARSKG [V7M]	2.03
IDFLRVRRNQQSLAVSNMGARSKG [V7R]	3.37
IDFLRVDRNQQSLAVSNMGARSKG [V7D]	3.16
IDFLRVYRNQQSLAVSNMGARSKG [V7Y]	2.23
IDFLRVVRNQQSLAVSNMDARSKG [G19D]	2.35
IDFLRVVRNQQSLAVSNMPARSKG [G19P]	2.83
IDFLRVVRNQQSLAVSNMVARSKG [G19V]	2.13
IDFLRVVRNQQSLAVSNMRARSKG [G19R]	1.97
IDFLRVVRAQQSLAVSNMGARSKG [N9A]	1.94
IDFLRVVRYQQSLAVSNMGARSKG [N9Y]	1.93
IDFLRVVRLQQSLAVSNMGARSKG [N9L]	1.61
IDFLRVVRTQQSLAVSNMGARSKG [N9T]	2.28
IDCLRVVRNQQSLAVSNMGARSKG [F3C]	3.89
IDFLRVVRNQQSLAFSNMGARSKG [V15F]	2.18
IDFLRVVRNQQSLAPSNMGARSKG [V15P]	2.36
IDFLRVVRNQQSLAKSNMGARSKG [V15K]	2.62
IDFLRVVRNQQSLACSNMGARSKG [V15C]	2.28
IDFLRVVRNQQSLALSNMGARSKG [V15L]	2.41
IDFLQVVRNQQSLAVSNMGARSKG [R5Q]	3.27
IDFLRVVRNQQSLAVSNMGARSKI [G24I]	2.3
IDFLRVVRNQQSLAVSNMGARSKN [G24N]	2.46
IDFLRVVRNQQSLAVSNMGARSKD [G24D]	2.75
IDFLRVVRNQQSLAVSNMGARSKT [G24T]	2.63

Variant	protein stability index
IDFLRVVRNQQSLAVSNMGARSKF [G24F]	1.84
IDFLRVVRNQQSLAVSNYGARSKG [M18Y]	2.04
IDFLRVVRNQQSLAVSNMGVRSKG [A20V]	2.42
IDFLRVVRNQQSLAVSNMGHRSKG [A20H]	2.38
IDFLRVVRNQQSLAVSNMGFRSKG [A20F]	2.1
IDFLRVVWNQQSLAVSNMGARSKG [R8W]	1.94
IDFLRVVLNQQSLAVSNMGARSKG [R8L]	2.04
IDFLRVVCNQQSLAVSNMGARSKG [R8C]	2.27
IDFLRVVVNQQSLAVSNMGARSKG [R8V]	1.88
IDFLRVVFNQQSLAVSNMGARSKG [R8F]	1.47
IDFLRVVKNQQSLAVSNMGARSKG [R8K]	2.26
IDFLRVVINQQSLAVSNMGARSKG [R8I]	2.65
IDFLRVVRNQQSLAVSNMGARSPG [K23P]	2.09
IDFLRVVRNQQSLAVSNMGARSTG [K23T]	1.32
IDFLRVVRNQQSLAVSNMGARSWG [K23W]	1.59
IDFLRVVRNQQSLAVSNMGARSSG [K23S]	1.68
IDFLRGVRNQQSLAVSNMGARSKG [V6G]	3.53
IDFLRNVRNQQSLAVSNMGARSKG [V6N]	3.35
IDFLRTVRNQQSLAVSNMGARSKG [V6T]	3.23
IDFLRWVRNQQSLAVSNMGARSKG [V6W]	2.74
IDFLRRVRNQQSLAVSNMGARSKG [V6R]	2.38
IHFLRVVRNQQSLAVSNMGARSKG [D2H]	2.41
INFLRVVRNQQSLAVSNMGARSKG [D2N]	2.06
IWFLRVVRNQQSLAVSNMGARSKG [D2W]	2.16

Variant	protein stability index
ITFLRVVRNQQSLAVSNMGARSKG [D2T]	2.05
IFFLRVVRNQQSLAVSNMGARSKG [D2F]	2.33
ICFLRVVRNQQSLAVSNMGARSKG [D2C]	2.06
IDFLRVVRNQQSLAVSNMGAFSKG [R21F]	2.45
IDFLRVVRNQQSLAVSNMGAESKG [R21E]	2.3
IDFLRVVRNQQSLAVSNMGACSKG [R21C]	1.83
IDFLRVVRNQQSLAVSNMGADSKG [R21D]	2.54
IDFLRVVRNQQSLAVSNMGAPSKG [R21P]	2.15
IDFLRVVRNQQSLAVSNMGASSKG [R21S]	2.37
IDFLRVVRNQQSLAVSNMGARRKG [S22R]	2.64
IDFLRVVRNQQSLAVSNMGARGKG [S22G]	2.27
IDFLRVVRNQQSLAVSNMGARVKG [S22V]	2.03
NDFLRVVRNQQSLAVSNMGARSKG [I1N]	3.83
WDFLRVVRNQQSLAVSNMGARSKG [I1W]	2.88
GDFLRVVRNQQSLAVSNMGARSKG [I1G]	3.72
IDFLRVVRNQQILAVSNMGARSKG [S12I]	1.99
IDFLRVVRNQQDLAVSNMGARSKG [S12D]	2.75
IDFLRVVRNQQSLYVSNMGARSKG [A14Y]	2.04
IDFLRVVRNQQSLHVSNMGARSKG [A14H]	2.48
IDFLRVVRNQQSLCVSNMGARSKG [A14C]	2.01
IDFLRVVRNQQSLNVSNMGARSKG [A14N]	2.4
IDFLRVVRNQQSLLVSNMGARSKG [A14L]	1.76
IDFLRVVRNQISLAVSNMGARSKG [Q11I]	1.8
IDFLRVVRNQLSLAVSNMGARSKG [Q11L]	1.81

Variant	protein stability index
IDFLRVVRNQSSLAVSNMGARSKG [Q11S]	2.31
IDFLRVVRNQWSLAVSNMGARSKG [Q11W]	1.34
IDFLRVVRNQQSIAVSNMGARSKG [L13I]	2.31
IDFLRVVRNQQSGAVSNMGARSKG [L13G]	3.24
IDFLRVVRNQQSTAVSNMGARSKG [L13T]	2.57
IDFLRVVRNQQSFAVSNMGARSKG [L13F]	2.34
IDFLRVVRNQQSDAVSNMGARSKG [L13D]	3.08
IDFLRVVRNQQSLAVTNMGARSKG [S16T]	2.2
IDFLRVVRNQQSLAVVNMGARSKG [S16V]	1.9
IDFCRVVRNQQSLAVSNMGARSKG [L4C]	2.94
IDFNRVVRNQQSLAVSNMGARSKG [L4N]	3.48
IDFTRVVRNQQSLAVSNMGARSKG [L4T]	3.33
IDFDRVVRNQQSLAVSNMGARSKG [L4D]	4.58
IDFERVVRNQQSLAVSNMGARSKG [L4E]	4.22
IDFYRVVRNQQSLAVSNMGARSKG [L4Y]	1.89
IDFRRVVRNQQSLAVSNMGARSKG [L4R]	3.06
IDFLRVVRNWQSLAVSNMGARSKG [Q10W]	2.02
IDFLRVVRNCQSLAVSNMGARSKG [Q10C]	1.89
IDFLRVVRNRQSLAVSNMGARSKG [Q10R]	2.19
IDFLRVVRNDQSLAVSNMGARSKG [Q10D]	2.63
IDFLRVVRNQQSLAVSSMGARSKG [N17S]	2.74
IDFLRVVRNQQSLAVSDMGARSKG [N17D]	2.63
